# Experimental data reported in patent publication US20220098307A1 (WUHAN YZY BIOPHARMA, published 2022).
# Where a chain is given by its changes, count along the chain named.
# B1: BCMA-M2-WT (bispecific antibody, human IgG1, kappa)
# chain: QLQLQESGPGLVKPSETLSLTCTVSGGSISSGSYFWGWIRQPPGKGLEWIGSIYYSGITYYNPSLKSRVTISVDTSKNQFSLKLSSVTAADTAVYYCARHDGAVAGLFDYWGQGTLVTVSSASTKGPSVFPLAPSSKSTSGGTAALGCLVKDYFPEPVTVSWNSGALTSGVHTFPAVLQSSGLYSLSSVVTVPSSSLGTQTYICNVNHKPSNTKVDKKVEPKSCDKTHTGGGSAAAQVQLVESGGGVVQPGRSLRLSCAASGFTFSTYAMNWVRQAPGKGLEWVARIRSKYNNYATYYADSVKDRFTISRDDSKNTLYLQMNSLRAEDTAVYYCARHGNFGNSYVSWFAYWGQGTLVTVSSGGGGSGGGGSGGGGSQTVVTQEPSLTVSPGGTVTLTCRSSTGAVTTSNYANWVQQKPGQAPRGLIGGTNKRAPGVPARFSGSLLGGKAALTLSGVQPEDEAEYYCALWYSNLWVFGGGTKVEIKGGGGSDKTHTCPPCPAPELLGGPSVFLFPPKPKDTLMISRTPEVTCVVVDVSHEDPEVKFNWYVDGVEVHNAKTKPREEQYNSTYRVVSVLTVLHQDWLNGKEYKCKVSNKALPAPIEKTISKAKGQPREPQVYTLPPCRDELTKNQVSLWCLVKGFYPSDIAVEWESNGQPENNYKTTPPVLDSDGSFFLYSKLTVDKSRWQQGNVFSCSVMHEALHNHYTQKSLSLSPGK
# heavy: QLQLQESGPGLVKPSETLSLTCTVSGGSISSGSYFWGWIRQPPGKGLEWIGSIYYSGITYYNPSLKSRVTISVDTSKNQFSLKLSSVTAADTAVYYCARHDGAVAGLFDYWGQGTLVTVSSASTKGPSVFPLAPSSKSTSGGTAALGCLVKDYFPEPVTVSWNSGALTSGVHTFPAVLQSSGLYSLSSVVTVPSSSLGTQTYICNVNHKPSNTKVDKKVEPKSCDKTHTCPPCPAPELLGGPSVFLFPPKPKDTLMISRTPEVTCVVVDVSHEDPEVKFNWYVDGVEVHNAKTKPREEQYNSTYRVVSVLTVLHQDWLNGKEYKCKVSNKALPAPIEKTISKAKGQPREPQVCTLPPSRDELTKNQVSLSCAVKGFYPSDIAVEWESNGQPENNYKTTPPVLDSDGSFFLVSKLTVDKSRWQQGNVFSCSVMHEALHNRFTQKSLSLSPGK
# light: SYVLTQPPSVSVAPGQTARITCGGNNIGSKSVHWYQQPPGQAPVVVVYDDSDRPSGIPERFSGNSNGNTATLTISRVEAGDEAVYYCQVWDSSSDHVVFGGGTKLTVLRTVAAPSVFIFPPSDEQLKSGTASVVCLLNNFYPREAKVQWKVDNALQSGNSQESVTEQDSKDSTYSLSSTLTLSKADYEKHKVYACEVTHQGLSSPVTKSFNRGEC
# notes: structure 2 (fusion peptide 2, heavy, two light chains); BCMA x CD3; CH2 WT
# B2: BCMA-M2-G2 (bispecific antibody, human IgG1, kappa)
# chain: QLQLQESGPGLVKPSETLSLTCTVSGGSISSGSYFWGWIRQPPGKGLEWIGSIYYSGITYYNPSLKSRVTISVDTSKNQFSLKLSSVTAADTAVYYCARHDGAVAGLFDYWGQGTLVTVSSASTKGPSVFPLAPSSKSTSGGTAALGCLVKDYFPEPVTVSWNSGALTSGVHTFPAVLQSSGLYSLSSVVTVPSSSLGTQTYICNVNHKPSNTKVDKKVEPKSCDKTHTGGGSAAAQVQLVESGGGVVQPGRSLRLSCAASGFTFSTYAMNWVRQAPGKGLEWVARIRSKYNNYATYYADSVKDRFTISRDDSKNTLYLQMNSLRAEDTAVYYCARHGNFGNSYVSWFAYWGQGTLVTVSSGGGGSGGGGSGGGGSQTVVTQEPSLTVSPGGTVTLTCRSSTGAVTTSNYANWVQQKPGQAPRGLIGGTNKRAPGVPARFSGSLLGGKAALTLSGVQPEDEAEYYCALWYSNLWVFGGGTKVEIKGGGGSDKTHTCPPCPAPPVAGPSVFLFPPKPKDTLMISRTPEVTCVVVDVSHEDPEVQFNWYVDGVEVHNAKTKPREEQFNSTFRVVSVLTVVHQDWLNGKEYKCKVSNKGLPAPIEKTISKTKGQPREPQVYTLPPCRDELTKNQVSLWCLVKGFYPSDIAVEWESNGQPENNYKTTPPVLDSDGSFFLYSKLTVDKSRWQQGNVFSCSVMHEALHNHYTQKSLSLSPGK
# heavy: QLQLQESGPGLVKPSETLSLTCTVSGGSISSGSYFWGWIRQPPGKGLEWIGSIYYSGITYYNPSLKSRVTISVDTSKNQFSLKLSSVTAADTAVYYCARHDGAVAGLFDYWGQGTLVTVSSASTKGPSVFPLAPSSKSTSGGTAALGCLVKDYFPEPVTVSWNSGALTSGVHTFPAVLQSSGLYSLSSVVTVPSSSLGTQTYICNVNHKPSNTKVDKKVEPKSCDKTHTCPPCPAPPVAGPSVFLFPPKPKDTLMISRTPEVTCVVVDVSHEDPEVQFNWYVDGVEVHNAKTKPREEQFNSTFRVVSVLTVVHQDWLNGKEYKCKVSNKGLPAPIEKTISKTKGQPREPQVCTLPPSRDELTKNQVSLSCAVKGFYPSDIAVEWESNGQPENNYKTTPPVLDSDGSFFLVSKLTVDKSRWQQGNVFSCSVMHEALHNRFTQKSLSLSPGK
# light: B1 light
# notes: structure 2; BCMA x CD3; CH2 G2CH2
# B3: BCMA-M2-AG2 (bispecific antibody, human IgG1, kappa)
# chain: B2 chain with C499A
# heavy: B2 heavy with C233A
# light: B1 light
# notes: structure 2; BCMA x CD3; CH2 AG2CH2
# B4: BCMA-M2-FES (bispecific antibody, human IgG1, kappa)
# chain: QLQLQESGPGLVKPSETLSLTCTVSGGSISSGSYFWGWIRQPPGKGLEWIGSIYYSGITYYNPSLKSRVTISVDTSKNQFSLKLSSVTAADTAVYYCARHDGAVAGLFDYWGQGTLVTVSSASTKGPSVFPLAPSSKSTSGGTAALGCLVKDYFPEPVTVSWNSGALTSGVHTFPAVLQSSGLYSLSSVVTVPSSSLGTQTYICNVNHKPSNTKVDKKVEPKSCDKTHTGGGSAAAQVQLVESGGGVVQPGRSLRLSCAASGFTFSTYAMNWVRQAPGKGLEWVARIRSKYNNYATYYADSVKDRFTISRDDSKNTLYLQMNSLRAEDTAVYYCARHGNFGNSYVSWFAYWGQGTLVTVSSGGGGSGGGGSGGGGSQTVVTQEPSLTVSPGGTVTLTCRSSTGAVTTSNYANWVQQKPGQAPRGLIGGTNKRAPGVPARFSGSLLGGKAALTLSGVQPEDEAEYYCALWYSNLWVFGGGTKVEIKGGGGSDKTHTCPPCPAPEFEGGPSVFLFPPKPKDTLMISRTPEVTCVVVDVSHEDPEVKFNWYVDGVEVHNAKTKPREEQYNSTYRVVSVLTVLHQDWLNGKEYKCKVSNKALPASIEKTISKAKGQPREPQVYTLPPCRDELTKNQVSLWCLVKGFYPSDIAVEWESNGQPENNYKTTPPVLDSDGSFFLYSKLTVDKSRWQQGNVFSCSVMHEALHNHYTQKSLSLSPGK
# heavy: B1 heavy with L238F, L239E, P335S
# light: B1 light
# notes: structure 2; BCMA x CD3; CH2 FES
# B5: M3IC-SG2 (bispecific antibody)
# chain 1: EVKLDETGGGLVQPGRPMKLSCVASGFTFSDYWMNWVRQSPEKGLEWVAQIRNKPYNYETYYSDSVKGRFTISRDDSKSSVYLQMNNLRVEDMGIYYCTGSYYGMDYWGQGTSVTVSSASTKGPSVFPLAPSSKSTSGGTAALGCLVKDYFPEPVTVSWNSGALTSGVHTFPAVLQSSGLYSLSSVVTVPSSSLGTQTYICNVNHKPSNTKVDKKVEPKSCGGGGSGGGGSQVQLVESGGGVVQPGRSLRLSCAASGFTFSTYAMNWVRQAPGKGLEWVARIRSKYNNYATYYADSVKDRFTISRDDSKNTLYLQMNSLRAEDTAVYYCARHGNFGNSYVSWFAYWGQGTLVTVSSASVAAPSVFIFPPSDEQLKSGTASVVCLLNNFYPREAKVQWKVDNALQSGNSQESVTEQDSKDSTYSLSSTLTLSKADYEKHKVYACEVTHQGLSSPVTKSFNRGECDKTHTCPPSPAPPVAGPSVFLFPPKPKDTLMISRTPEVTCVVVDVSHEDPEVQFNWYVDGVEVHNAKTKPREEQFNSTFRVVSVLTVVHQDWLNGKEYKCKVSNKGLPAPIEKTISKTKGQPREPQVYTLPPCRDELTKNQVSLWCLVKGFYPSDIAVEWESNGQPENNYKTTPPVLDSDGSFFLYSKLTVDKSRWQQGNVFSCSVMHEALHNHYTQKSLSLSPGK
# chain 2: QTVVTQEPSLTVSPGGTVTLTCRSSTGAVTTSNYANWVQQKPGQAPRGLIGGTNKRAPGVPARFSGSLLGGKAALTLSGVQPEDEAEYYCALWYSNLWVFGGGTKVEIKSSASTKGPSVFPLAPSSKSTSGGTAALGCLVKDYFPEPVTVSWNSGALTSGVHTFPAVLQSSGLYSLSSVVTVPSSSLGTQTYICNVNHKPSNTKVDKKVEPKSC
# heavy: EVKLDETGGGLVQPGRPMKLSCVASGFTFSDYWMNWVRQSPEKGLEWVAQIRNKPYNYETYYSDSVKGRFTISRDDSKSSVYLQMNNLRVEDMGIYYCTGSYYGMDYWGQGTSVTVSSASTKGPSVFPLAPSSKSTSGGTAALGCLVKDYFPEPVTVSWNSGALTSGVHTFPAVLQSSGLYSLSSVVTVPSSSLGTQTYICNVNHKPSNTKVDKKVEPKSCDKTHTCPPSPAPPVAGPSVFLFPPKPKDTLMISRTPEVTCVVVDVSHEDPEVQFNWYVDGVEVHNAKTKPREEQFNSTFRVVSVLTVVHQDWLNGKEYKCKVSNKGLPAPIEKTISKTKGQPREPQVCTLPPSRDELTKNQVSLSCAVKGFYPSDIAVEWESNGQPENNYKTTPPVLDSDGSFFLVSKLTVDKSRWQQGNVFSCSVMHEALHNRFTQKSLSLSPGK
# light: DVVMTQTPLSLPVSLGDQASISCRSSQSLVHSNGNTYLRWYLQKPGQSPKVLIYKVSNRFSGVPDRFSGSGSGTDFTLKISRVEAEDLGVYFCSQSTHVPWTFGGGTKLEIKRTVAAPSVFIFPPSDEQLKSGTASVVCLLNNFYPREAKVQWKVDNALQSGNSQESVTEQDSKDSTYSLSSTLTLSKADYEKHKVYACEVTHQGLSSPVTKSFNRGEC
# notes: structure 3 isotype control; CH2 SG2CH2
# How the values were obtained:
# [1] = molecular target: T1, Human CD3ε (human, UniProt P07766 23-126); assay: flow cytometry, human T cells
# T1 construct: CD3 on T cells isolated from human whole blood
# Outline: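 Cell binding by flow cytometry: antigen-positive tumor cells (e.g. MM.1S or RPMI 8226 for CD38) or CD3+ T cells, 2×10⁵/well, with antibody 3-fold diluted over 11 points from 3000 nM, 2 h at 4° C with shaking.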
# [2] = molecular target: T2, Monkey CD3 (monkey); assay: flow cytometry, monkey T cells
# T2 construct: whole, on cells; also called CD3 of monkey CD3 positive T cells
# [3] = molecular target: T3, Human BCMA (human, UniProt Q02223 1-54); assay: flow cytometry, human tumor cells (BCMA+)
# T3 sequence: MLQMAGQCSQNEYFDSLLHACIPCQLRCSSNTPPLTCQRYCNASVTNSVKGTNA
# Excerpt: (§1) 1) Cell preparation: T cells isolated from CD3-positive human whole blood were used for a CD3 end affinity detection of multifunctional antibody molecule; positive tumor cells of corresponding antigen were used for detecting affinity of tumor antigen; for example, CD38-positive MM. 1S cells (purchased from the Cell Resource Center of Shanghai Institutes for Biological Sciences, Chinese Academy of Sciences) or RPMI 8226 cells (purchased from the Cell Resource Center of Shanghai Institutes for Biological Sciences, Chinese Academy of Sciences) were used for CD38 antigen detection, and PD-L1 positive H358 cells (purchased from the Cell Resource Center of Shanghai Institutes for Biological Sciences, Chinese Academy of Sciences) were used for PD-L1 antigen detection, and so on. The cells were resuspended with 1% FBS-PBS, adjusted to a density of 4×10⁶/ml, and 50 μl of cells were taken from each well, and then plated at 2×10⁵ per well. Cell plating was operated on ice
# (§2) 2) Addition of the antibody: according to the experimental design, the antibody was diluted gradually, and dilution of antibody was operated on ice. For example, the initial concentration of antibody for dilution was 3000 nM, and the antibody was diluted by 3 times with 11 concentration gradients. The diluted antibody was added to a cell well at 50 μl per well, mixed well, and shaked and incubated at 4° C. 1100 rpm/min for 2 h; after washing, the cells were resuspend in 1% FBS-PBS, and a diluted secondary antibody PE anti-human IgG FC (Biolegend, 409304) was added with a final concentration of 8 ug/ml and a volume of 50 μl/well. At the same time, a well only added with cells and secondary antibody was set as a control, the components were mixed well, and incubated under shaking at 1100 rpm/min at 4° C. for 1 h;
# (§3) 5) Data analysis: the data was analyzed by a flow analysis software FlowJo 7.6 thereby obtaining an average fluorescence intensity of the specific antibody concentration, plotted by a Graphpad Prism 5 with the antibody concentration (nM) as an abscissa and the average fluorescence intensity as an ordinate; the EC50 value was calculated by the method of One site—Specific binding, and the EC50 value indicated the cell affinity of the antibody to the corresponding target antigen.
# [4] = molecular target: T4, human CEA (human, UniProt P06731 35-685); assay: flow cytometry, human tumor cells (table of the CEA series)
# T4 sequence: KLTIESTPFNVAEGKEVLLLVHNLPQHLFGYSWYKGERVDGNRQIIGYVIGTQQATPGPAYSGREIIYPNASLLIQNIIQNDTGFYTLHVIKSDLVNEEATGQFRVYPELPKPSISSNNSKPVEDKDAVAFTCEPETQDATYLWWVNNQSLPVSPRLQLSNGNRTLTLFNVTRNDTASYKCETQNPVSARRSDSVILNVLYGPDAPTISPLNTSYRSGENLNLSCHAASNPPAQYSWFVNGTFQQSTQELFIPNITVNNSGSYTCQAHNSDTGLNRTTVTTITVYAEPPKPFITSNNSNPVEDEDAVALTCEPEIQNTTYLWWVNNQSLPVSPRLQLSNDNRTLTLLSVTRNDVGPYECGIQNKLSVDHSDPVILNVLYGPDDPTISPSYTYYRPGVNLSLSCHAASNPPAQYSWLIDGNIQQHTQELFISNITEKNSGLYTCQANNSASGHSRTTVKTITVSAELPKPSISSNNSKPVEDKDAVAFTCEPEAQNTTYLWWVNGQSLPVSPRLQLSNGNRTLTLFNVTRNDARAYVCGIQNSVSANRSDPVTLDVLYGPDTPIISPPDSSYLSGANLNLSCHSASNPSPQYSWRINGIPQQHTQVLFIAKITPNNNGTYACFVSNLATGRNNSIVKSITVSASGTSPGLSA
# Excerpt: as §1, §2, §3
Binder,EC50 [1] [nM],EC50 [2] [nM],EC50 [3] [nM],binding result [4]
B1,588,676,20.3,
B2,515,591,19.1,
B3,613,668,23.8,
B4,532,630,15.3,
B5,677,,,no binding
